Measurements published in the supplement of paper PMC10567573.

B1: ZNF649 (parent)
chain: LTEHKRIHTGKKPHVCSLCGKAFY

Variants of: B1
Experiment: protein stability index of a GFP-peptide fusion (GPS, HEK-293T) (PSI 1-6); higher = more stable
Settings: c terminus: a fixed tail appended
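Note: lentivirally expressed fusions sorted by FACS into six bins by GFP to DsRed ratio, PSI derived from sequencing read proportions per bin multiplied by bin number.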

Protein stability index: each site, then its substitutions
E3: Y 2.89; F 2.31; N 2.22; Q 2.32; C 2.38; H 1.68; K 2.93; A 2.47; V 2.23; S 2.59; G 1.79; I 1.96; R 1.86; D 2.71
K5: P 1.15; V 2.48; M 2.79; E 3.03; C 4.3; R 2.63; N 3.39; T 2.88; A 3.06; D 3.35; F 2.25; S 2.3; I 3; W 3.18; L 2.23; Q 2.79
T2: D 3.12; V 2.27; M 2.16; G 2.25; F 1.7; H 2.46; A 2.57; R 2.78; K 2.26; P 2.32; N 2.32; W 2; S 3; Y 2.31; Q 2.58; E 3.01; L 2.09; I 2.04; C 3.94
R6: G 1.94; E 3.42; C 4.05; F 2.33; H 3.63; N 2.58; Y 2.5; I 2.71; S 2.25; K 2.33; L 2.14; W 2.75; D 2.93; T 3.08; Q 4.11
L1: V 2.57; W 2.17; C 3.22; T 2.58; N 2.81; F 2.18; R 3.27; Y 3.44; P 3.05; I 2.18; K 3.22; A 3.24; Q 3.02; D 3.45; H 2.97; S 2.81; G 3.19; M 2.3; E 2.87
I7: A 2.52
